Assay results taken from article PMC10366545, “Phosphoregulation of DNA repair via the Rad51 auxiliary factor Swi5–Sfr1” (The Journal of Biological Chemistry, 2023).
Positions count from the first letter of the chain named.

T1: Rad51;Swi5-Sfr1 (S5S1) wild type (Schizosaccharomyces …, UniProt P36601;Q9UUB7;Q9USV1 1-365;1-85;1-299, |)
T1 sequence 1: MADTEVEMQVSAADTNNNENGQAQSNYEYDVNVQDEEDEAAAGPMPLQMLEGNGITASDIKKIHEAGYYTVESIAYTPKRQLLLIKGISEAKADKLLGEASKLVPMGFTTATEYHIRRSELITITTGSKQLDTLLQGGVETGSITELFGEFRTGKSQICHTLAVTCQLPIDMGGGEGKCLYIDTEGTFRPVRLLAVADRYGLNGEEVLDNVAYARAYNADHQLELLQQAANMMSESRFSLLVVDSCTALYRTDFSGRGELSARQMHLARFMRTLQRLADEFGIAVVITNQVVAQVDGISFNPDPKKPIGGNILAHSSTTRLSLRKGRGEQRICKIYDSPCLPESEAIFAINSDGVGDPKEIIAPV
T1 sequence 2: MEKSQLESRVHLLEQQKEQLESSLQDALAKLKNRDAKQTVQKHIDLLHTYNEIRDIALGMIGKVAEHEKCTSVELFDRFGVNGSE
T1 sequence 3: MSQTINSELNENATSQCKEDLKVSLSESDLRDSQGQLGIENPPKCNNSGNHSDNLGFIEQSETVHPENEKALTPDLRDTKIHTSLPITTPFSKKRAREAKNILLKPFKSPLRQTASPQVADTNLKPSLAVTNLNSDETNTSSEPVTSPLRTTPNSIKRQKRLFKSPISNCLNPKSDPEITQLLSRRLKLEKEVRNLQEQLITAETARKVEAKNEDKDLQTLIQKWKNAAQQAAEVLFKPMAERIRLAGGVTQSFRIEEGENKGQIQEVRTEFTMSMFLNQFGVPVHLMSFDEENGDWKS

T2: Rad51 (Schizosaccharomyces pombe, UniProt P36601 1-365)
T2 sequence: T1 sequence 1

T3: Swi5–Sfr1 complex (wildtype, hexahistidine-tagged Sfr1) (S. pombe, UniProt Q9USV1 1-299; Q9UUB7 1-85)
T3 construct: Sfr1, S. pombe; Swi5, S. pombe; Made in E. coli, so it serves as the unphosphorylated sample; also called S5S1; wildtype S5S1; source: E. coli BL21 DE3 (pRARE2), Sfr1 co-expressed with Swi5 from pET11b, purified (His-tag column, HiTrap Q, Superdex 200); not shown: His6, N-terminal, kept
T3 sequence (looked up) 1: T1 sequence 3
T3 sequence (looked up) 2: T1 sequence 2

T4: Swi5–Sfr1 nonphosphorylatable mutant complex (S5S1-NON) (S. pombe, UniProt Q9USV1 1-299; Q9UUB7 1-85, S24 to A | T73 to A | S109 to A | S116 to A | S165 to A)
T4 construct: Sfr1, S. pombe, five S/T phosphosites (S24, T73, S109, S116, S165) mutated to A; Swi5, S. pombe; source: E. coli BL21 DE3 (pRARE2), Sfr1 co-expressed with Swi5 from pET11b, purified (His-tag column, HiTrap Q, Superdex 200); not shown: His6, N-terminal, kept
T4 sequence (looked up) 1: T1 sequence 3 with S24A, T73A, S109A, S116A, S165A
T4 sequence (looked up) 2: T1 sequence 2

T5: Swi5-Sfr1 (S5S1) wild type (Schizosaccharomyces pombe, UniProt Q9UUB7;Q9USV1 1-85;1-299)
T5 sequence 1: T1 sequence 2
T5 sequence 2: T1 sequence 3

B1: Swi5–Sfr1 phosphomimetic mutant complex (S5S1-PM) (complex, S. pombe)
chain 1: T1 sequence 3 with S24D, T73D, S109D, S116D, S165D
chain 2: T1 sequence 2
notes: Sfr1, S. pombe, five S/T phosphosites (S24, T73, S109, S116, S165) mutated to D; Swi5, S. pombe; source: E. coli BL21 DE3 (pRARE2), Sfr1 co-expressed with Swi5 from pET11b, purified (His-tag column, HiTrap Q, Superdex 200); not shown: His6, N-terminal, kept
B2: BA655 100-mer ssDNA (ssDNA)
DNA: ATAAGGCCACGTATTTTGCAAGCTATTTAACTGGCGGCGATTGCGTACCCGACGACCAAAATTAGGGTCAACGCTACCTGTAGGAAGTGTCCGCATAAAG
B3: Rad51 (natural protein, S. pombe, UniProt P36601 1-365, looked up)
chain: T1 sequence 1
notes: Rad51 recombinase, S. pombe; also called S. pombe Rad51; Rad51-ssDNA filament
B4: BA663 80-mer ssDNA (ssDNA)
DNA: TTGATAAGAGGTCATTTTTGCGGATGGCTTAGAGCTTAATTGCTGAATCTGGTGCTGTAGCTCAACATGTTTTAAATATG
B5: BA663/BA664 80-bp dsDNA (dsDNA)
DNA 1: B4 DNA
DNA 2: CATATTTAAAACATGTTGAGCTACAGCACCAGATTCAGCAATTAAGCTCTAAGCCATCCGCAAAAATGACCTCTTATCAA
B6: BA494 116-mer ssDNA (ssDNA)
DNA: TTCAATATCTGGTTGAACGGCGTCGCGTCGTAACCCAGCTTGGTAAGTTGGATTAAGCACTCCGTGGACAGATTTGTCATTGTGAGCATTTTCATCCCGAAGTTGCGGCTCATTCT

How the values were obtained:
Rad51 [1] = biological target: B3; test: pull-down; filament binding assay: Rad51 (3.33 μM) filaments on circular ssDNA (10 μMnt) held on streptavidin beads through a biotinylated oligonucleotide; 3.33 μM S5S1 added, 5 min 37 °C; 25 mM Tris-Cl 7.5, 100 mM NaCl, 3.5 mM MgCl2, 2 mM ATP, 0.5 mM TCEP, 5% glycerol, 0.05% Tween-20; Sfr1 signal normalised to Rad51, relative to wildtype, n = 3; settings: both partners purified
[2] = biological target: T1, Rad51;Swi5-Sfr1 (S5S1) wild type; test: streptavidin pull-down; ATP, Mg2+, Fbh1-Skp1; S5S1 antagonizes disruption; EMSA: 25 mM Hepes-KOH pH 7.5, 100 mM KCl, 3.5 mM MgCl2, 0.5 mM TCEP, 5% glycerol, 20 nM DNA, 37 C 15 min, 0.8% agarose in TAE at 4 C; pull-down: 25 mM Tris-Cl pH 7.5, 100 mM NaCl, 2 mM ATP, 5 mM MgCl2, 37 C; settings: protein: recombinant;recombinant; tags: ;N-terminal His6 on Sfr1; label: 5' biotin
Rad51 [3] = biological target: T2, Rad51; test: streptavidin pull-down; 2 mM ATP, 5 mM Mg2+; EMSA: 25 mM Hepes-KOH pH 7.5, 100 mM KCl, 3.5 mM MgCl2, 0.5 mM TCEP, 5% glycerol, 20 nM DNA, 37 C 15 min, 0.8% agarose in TAE at 4 C; pull-down: 25 mM Tris-Cl pH 7.5, 100 mM NaCl, 2 mM ATP, 5 mM MgCl2, 37 C; settings: protein: recombinant; label: 5' biotin
[4] = biological target: T3, Swi5–Sfr1 complex (wildtype, …); test: pull-down; in solution; nickel resin holds hexahistidine-tagged S5S1; 500 nM each protein; 30 mM Tris-Cl 7.5, 100 mM KCl, 5 mM MgCl2, 1 mM ATP, 0.25 mM TCEP, 5% glycerol, 0.05% Tween-20; 30 °C 15 min, then resin 1 h at 4 °C; SDS-PAGE, Coomassie; settings: both partners purified
[5] = biological target: T4, Swi5–Sfr1 nonphosphorylatable mutant …; test: as above; settings: both partners purified
[6] = biological target: T5, Swi5-Sfr1 (S5S1) wild type; test: EMSA; 3.5 mM Mg2+; EMSA: 25 mM Hepes-KOH pH 7.5, 100 mM KCl, 3.5 mM MgCl2, 0.5 mM TCEP, 5% glycerol, 20 nM DNA, 37 C 15 min, 0.8% agarose in TAE at 4 C; pull-down: 25 mM Tris-Cl pH 7.5, 100 mM NaCl, 2 mM ATP, 5 mM MgCl2, 37 C; settings: protein: recombinant, tags: N-terminal His6 on Sfr1, copies: 1;1
[7] = biological target: T1, Rad51;Swi5-Sfr1 (S5S1) wild type; test: negative-stain EM; 2 mM ATP, 5 mM Mg2+; longer filaments; EMSA: 25 mM Hepes-KOH pH 7.5, 100 mM KCl, 3.5 mM MgCl2, 0.5 mM TCEP, 5% glycerol, 20 nM DNA, 37 C 15 min, 0.8% agarose in TAE at 4 C; pull-down: 25 mM Tris-Cl pH 7.5, 100 mM NaCl, 2 mM ATP, 5 mM MgCl2, 37 C; settings: protein: recombinant;recombinant; tags: ;N-terminal His6 on Sfr1
Rad51 [8] = biological target: T2, Rad51; test: negative-stain EM; 2 mM ATP, 5 mM Mg2+; EMSA: 25 mM Hepes-KOH pH 7.5, 100 mM KCl, 3.5 mM MgCl2, 0.5 mM TCEP, 5% glycerol, 20 nM DNA, 37 C 15 min, 0.8% agarose in TAE at 4 C; pull-down: 25 mM Tris-Cl pH 7.5, 100 mM NaCl, 2 mM ATP, 5 mM MgCl2, 37 C; settings: protein: recombinant

Binder: B1
fold reduction in coprecipitation with Rad51 filaments against wildtype S5S1 (Rad51 [1]): ~5 fold

Binder: B2
binding result [2]: binds
binding result (Rad51 [3]): binds

Binder: B3
binding result [4]: binds
binding result [5]: binds

Binder: B4
binding result ([6]; label: 3' Cy5): binds

Binder: B5
binding result ([6]; label: 3' Cy5 on BA663, blunt): binds

Binder: B6
binding result [7]: binds
binding result (Rad51 [8]): binds
